The target of this assay is T1, human C1q (human, UniProt P02745 23-245; P02746 28-253; P02747 29-245).
T1 construct: Human C1q (Sigma) in the ELISA; hC1q coated at 100 nM in the RIA; also called hC1q
The assay can be described thus: RIA, 35S-labelled Fc on coated C1q. From the text:
IgG1 Fc variants arising from round three outputs of Fcγ1 selections against human C1q using ribosome display, were screened for binding using the primary RIA as described in Jermutus et al. (2001, PNAS 98(1): 75-80). In brief, the Fc region from the plasmid for each variant (96 well format) was PCR amplified to produce a linear DNA template. This template was gel purified and reamplified attaching the T7 promoter sequence for T7 directed in vitro transcription and the resulting mRNA purified on G25 Sephadex columns. For each variant, in vitro translations in the presence of 35S-labelled methionine was performed at 37° C. for 40 mins. The translations were stopped with PBS with 0.05% Tween 20. The translation mixture was incubated on a plate coated with 100 nM hC1q for 2 hours at room temperature. Plates were washed three times in PBS with 0.05% Tween 20 and three times in PBS. The remaining radioactivity was eluted with 0.1M triethylamine and quantified by liquid scintillation counting.

T1 sequence (P02745 23-245 limits assumed, chain 1 of 3): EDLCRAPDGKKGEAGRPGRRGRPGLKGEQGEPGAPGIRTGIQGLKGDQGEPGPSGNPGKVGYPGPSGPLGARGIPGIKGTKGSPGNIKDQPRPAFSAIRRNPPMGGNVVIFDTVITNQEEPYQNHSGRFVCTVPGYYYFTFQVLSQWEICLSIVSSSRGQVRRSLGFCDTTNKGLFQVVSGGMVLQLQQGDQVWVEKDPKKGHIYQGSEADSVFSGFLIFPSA
T1 sequence (P02746 28-253 limits assumed, chain 2 of 3): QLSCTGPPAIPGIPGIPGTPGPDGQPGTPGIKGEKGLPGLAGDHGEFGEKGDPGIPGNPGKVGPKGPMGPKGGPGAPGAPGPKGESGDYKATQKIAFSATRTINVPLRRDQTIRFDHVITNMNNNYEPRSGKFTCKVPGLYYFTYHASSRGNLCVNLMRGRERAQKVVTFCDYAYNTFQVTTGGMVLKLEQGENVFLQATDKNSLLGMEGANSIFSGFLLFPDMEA
T1 sequence (P02747 29-245 limits assumed, chain 3 of 3): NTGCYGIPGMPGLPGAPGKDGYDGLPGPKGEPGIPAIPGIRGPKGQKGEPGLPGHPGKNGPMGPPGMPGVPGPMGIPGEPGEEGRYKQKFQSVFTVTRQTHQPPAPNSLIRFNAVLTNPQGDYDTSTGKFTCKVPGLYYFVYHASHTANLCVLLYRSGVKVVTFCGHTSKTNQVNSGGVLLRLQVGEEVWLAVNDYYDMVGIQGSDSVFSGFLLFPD

B1: Fc polypeptide variant 2F01 (Fcγ1, in vitro translated) (other)
chain: AHTCPPCPAPELLGGPPVFLFPPKPKDTLMIPRTPEVTCVVVDVNHEDPEVKFNWYVDGVEVRNAKTKPREEQYNSTYRVVSVLTVLHQDWLSGKEYKCKVSNKALPAPIEKTISKAKGQPREPQVYTLPPSREEMTKNQVSLTCLVKGLYPSDITVEWESNGQPENDCKTTPPVLDSDGSSFLYSKLTVDKSRWQQGNVFSCSVMHKAPHNHYTQKSLSLSPGE
notes: Fc region only, in vitro translated with 35S-methionine for RIA
Turning to B1, the “RIA for C1q” value turned out to be 1.5 fold over wild-type.

Values taken from US20100184959A1 (AstraZeneca / MedImmune, published 2010).
